Results on one molecule are retold here after patent US7018836 (UNIVERSITY OF IOWA RESEARCH FOUNDATION, dated 2006).

The experiment has as its target T1, HIS-tagged human P-TEFb small subunit PITALRE (human, UniProt P50750 1-372).
T1 construct: also called HBS; HIS-tagged human kinase subunit (PITALRE)
The experiment is described as follows: co-expression in baculovirus, co-recovery with the HIS-tagged small subunit from a nickel column.

T1 sequence (P50750 whole entry): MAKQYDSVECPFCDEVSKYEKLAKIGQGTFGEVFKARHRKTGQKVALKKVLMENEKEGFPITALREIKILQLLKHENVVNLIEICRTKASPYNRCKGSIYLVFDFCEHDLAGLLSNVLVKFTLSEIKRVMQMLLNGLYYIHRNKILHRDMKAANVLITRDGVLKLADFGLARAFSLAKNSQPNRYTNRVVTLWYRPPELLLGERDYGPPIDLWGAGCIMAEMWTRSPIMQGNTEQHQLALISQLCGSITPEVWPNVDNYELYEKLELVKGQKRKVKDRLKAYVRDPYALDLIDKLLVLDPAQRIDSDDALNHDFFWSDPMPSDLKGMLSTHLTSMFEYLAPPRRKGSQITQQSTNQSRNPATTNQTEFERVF

B1: Drosophila P-TEFb small subunit with a HIS-tag at the carboxyl-terminus (enzyme)
chain: MAHMSHMLQQPSGSTPSNVGSSSSRTMSLMEKQKYIEDYDFPYCDESNKYEKVAKIGQGTFGEVFKAREKKGNKKFVAMKKVLMDNEKEGFPITALREIRILQLLKHENVVNLIEICRTKATATNGYRSTFYLVFDFCEHDLAGLLSNMNVKFSLGEIKKVMQQLLNGLYYIHSNKILHRDMKAANVLITKHGILKLADFGLARAFSIPKNESKNRYTNRVVTLWYRPPELLLGDRNYGPPVDMWGAGCIMAEMWTRSPIMQGNTEQQQLTFISQLCGSFTPDVWPGVEELELYKSIELPKNQKRRVKERLRPYVKDQTGCDLLDKLLTLDPKKRIDADTALNHDFFWTDPMPSDLSKMLSQHLQSMFEYLAQPRRSNQMRNYHQQLTTMNQKPQDNSMIDRVW
notes: also called DBS; Drosophila P-TEFb small (kinase) subunit; not shown: HIS-tag added to the carboxyl-terminus
As to B1, the binding result is “no binding”.
